Molecular target: T1, Integrator subunit INTS11(E203Q) (human, UniProt Q5TA45 1-600, E203Q)
T1 construct: INTS11, human; endonuclease subunit of the Integrator cleavage module; E203Q mutant with reduced catalytic activity used in all complexes for cryo-EM and XL-MS; Stood in the assays as a subunit of the Integrator–PP2A complex; also called INTS11(E203Q) mutant
Test: cross-linking; XL-MS of the PEC–Integrator–PP2A–SOSS complex (mixed population of pre- and post-termination complexes): pooled glycerol-gradient peak fractions, 3 mM BS3, 30 min, 30 °C
Details: both partners purified

binding result: binds
B1: NABP2 (natural protein, human, UniProt Q9BQ15-1 1-211, looked up)
chain: MTTETFVKDIKPGLKNLNLIFIVLETGRVTKTKDGHEVRTCKVADKTGSINISVWDDVGNLIQPGDIIRLTKGYASVFKGCLTLYTGRGGDLQKIGEFCMVYSEVPNFSEPNPEYSTQQAPNKAVQNDSNPSASQPTTGPSAASPASENQNGNGLSAPPGPGGGPHPPHTPSHPPSTRITRSQPNHTPAGPPGPSSNPVSNGKETRRSSKR
notes: Treated with lambda protein phosphatase during purification; also called SOSS factor NABP2

Source: paper PMC11062913, “Structural basis of Integrator-dependent RNA polymerase II termination” (Nature, 2024)
